Laboratory results: article PMC3575409, “Identification of a Novel Protein-Protein Interaction Motif Mediating Interaction of GPCR-Associated Sorting Proteins with G Protein-Coupled Receptors” (PLoS ONE, 2013)

Key:
[1] = molecular target: T1, purified full-length cannabinoid receptor type 2 (CNR2) (human, UniProt P34972 1-360); experiment: SPR; competition: 1.1 µM ADRB2 or 0.30 µM CNR2 preincubated at least 1 h with a range of GASP peptide or control peptide, injected over captured GST-tagged central domain of GASP-1; 25°C; endpoint responses 20 s after injection end; conditions: both partners purified
T1 construct: human cannabinoid receptor type 2; further tags may be present; also called full-length CNR2; source: P. pastoris, solubilized in DDM/CHS, purified (HisTrap)

[2] = molecular target: T2, purified full-length β2 adrenergic receptor (ADRB2) (human, UniProt P07550 1-413); experiment: as above; conditions: both partners purified
T2 construct: human β2 adrenergic receptor; further tags may be present; also called full-length ADRB2; source: P. pastoris, solubilized in DDM/CHS, purified (HisTrap)

T1 sequence (P34972 whole entry, the tested form may be a part): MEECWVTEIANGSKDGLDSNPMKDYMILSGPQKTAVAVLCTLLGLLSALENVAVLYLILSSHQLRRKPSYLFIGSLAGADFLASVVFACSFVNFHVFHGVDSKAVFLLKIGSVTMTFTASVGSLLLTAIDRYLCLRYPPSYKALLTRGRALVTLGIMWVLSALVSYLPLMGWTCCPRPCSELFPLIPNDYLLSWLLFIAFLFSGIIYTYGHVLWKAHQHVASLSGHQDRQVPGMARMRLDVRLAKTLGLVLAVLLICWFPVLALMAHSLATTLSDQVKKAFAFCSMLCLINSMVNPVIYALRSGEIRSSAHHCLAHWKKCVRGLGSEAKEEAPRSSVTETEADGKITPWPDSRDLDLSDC

B1: GASP peptide (peptide)
peptide: RVKQEPRFEEEVIIGSWFWAEKEA
notes: 24 amino acids containing the first GASP motif of GASP-2; also called synthetic peptide of 24 amino acids containing the first GASP motif of GASP-2; source: synthetic peptide (Genecust, ≥85% purity)
- IC50 [1]: ~100 µM
- IC50 [2]: ~100 µM
